Measurements published in US20240167070.

T1: model peptide 1, AIYRRGRLYRRNHV
T1 chain: AIYRRGRLYRRNHV

T2: model peptide 2, …(OH)HV
T2 chain: AIYRRGRLYRRXHV

T3: model peptide 3, AIYRRGRLYRRDHV
T3 chain: AIYRRGRLYRRDHV

T4: model peptide 4, AIYRRGRLYRRNSL
T4 chain: AIYRRGRLYRRNSL

T5: model peptide 5, …(OH)SL
T5 chain: AIYRRGRLYRRXSL

T6: model peptide 6, AIYRRGRLYRRDSL
T6 chain: AIYRRGRLYRRDSL


Tests used:
[1] = target: T1, model peptide 1, AIYRRGRLYRRNHV
model peptide 2, …(OH)HV = target: T2, model peptide 2, …(OH)HV
[2] = target: T3, model peptide 3, AIYRRGRLYRRDHV
[3] = target: T4, model peptide 4, AIYRRGRLYRRNSL
model peptide 5, …(OH)SL = target: T5, model peptide 5, …(OH)SL
[4] = target: T6, model peptide 6, AIYRRGRLYRRDSL

Protein | Km [1] | Km (model peptide 2, …(OH)HV) | Km [2] | Km [3] | Km (model peptide 5, …(OH)SL) | Km [4]
butelase-1 (protein) VEGTRWAVLVAGSKGYVNYRHQADVCHAYQILKKGGLKDENIIVFMYDDIAYNESNPHPGVIINHPYGSDVYKGVPKDYVGEDINPPNFYAVLLANKSALTGTGSGKVLDSGPNDHVFIYYTDHGGAGVLGMPSKPYIAASDLNDVLKKKHASGTYKSIVFYVESCESGSMFDGLLPEDHNIYVMGASDTGESSWVTYCPLQHPSPPPEYDVCVGDLFSVAWLEDCDVHNLQTETFQQQYEVVKNKTIVALIEDGTHVVQYGDVGLSKQTLFVYMGTDPAN | 67.5 µM | 98.8 µM | 630 µM |  |  | 
VyPAL2 (protein) DSIGTRWAVLIAGSKGYHNYRHQADVCHMYQILRKGGVKDENIIVFMYDDIAYNESNPFPGIIINKPGGENVYKGVPKDYTGEDINNVNFLAAILGNKSAIIGGSGKVLDTSPNDHIFIYYADHGAPGKIGMPSKPYLYADDLVDTLKQKAATGTYKSMVFYVEACNAGSMFEGLLPEGTNIYAMAASNSTEGSWITYCPGTPDFPPEFDVCLGDLWSITFLEDCDAHNLRTETVHQQFELVKKKIAYASTVSQYGDIPISKDSLSVYM |  |  |  | 42.5 µM | 120 µM | 2070 µM
